Measured values published in article PMC9408559, “Genome-Wide Analysis of the RAV Gene Family in Wheat and Functional Identification of TaRAV1 in Salt Stress”.

B1: probe with CAACA and CACCTG elements (dsDNA)
DNA 1: CGGCAACAATAAACACCTGACTCGACGGCAACAATAAACACCTGAC
DNA 2: GTCAGGTGTTTATTGTTGCCGTCGAGTCAGGTGTTTATTGTTGCCG
B2: probe with mutated CAACA and CACCTG elements (dsDNA)
DNA 1: CGGCATGTATAAACAATAGACTCGACGGCATGTATAAACAATAGAC
DNA 2: GTCTATTGTTTATACATGCCGTCGAGTCTATTGTTTATACATGCCG

Target: TaRAV1 (GST fusion) (Triticum aestivum, UniProt A0A3B6A018 1-392)
Test: EMSA; LightShift Chemiluminescent EMSA kit (Pierce), manufacturer's protocol; buffer, salt, pH and temperature not given
Conditions: protein: recombinant; tags: GST; label: biotin

TaRAV1 (GST fusion), sequence (A0A3B6A018 entry or part of it): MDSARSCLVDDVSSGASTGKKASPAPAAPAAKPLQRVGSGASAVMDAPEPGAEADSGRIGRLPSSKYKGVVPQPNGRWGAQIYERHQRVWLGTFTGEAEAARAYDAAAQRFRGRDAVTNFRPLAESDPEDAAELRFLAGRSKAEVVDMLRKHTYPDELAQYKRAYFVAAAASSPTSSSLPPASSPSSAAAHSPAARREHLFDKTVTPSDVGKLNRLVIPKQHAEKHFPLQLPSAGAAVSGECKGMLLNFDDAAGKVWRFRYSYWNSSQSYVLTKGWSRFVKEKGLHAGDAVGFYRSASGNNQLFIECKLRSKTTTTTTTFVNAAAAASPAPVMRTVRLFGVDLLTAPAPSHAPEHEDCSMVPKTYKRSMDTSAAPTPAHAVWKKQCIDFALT

Binder | binding result
B1 | binds
B2 | no binding
